# Laboratory results: US20220339099A1 (published 2022)
# T1: human IL-1 type 1 receptor (IL-1R1) (human, UniProt P14778 18-336, limits assumed)
# T1 construct: SPR reagent; also called IL-1RI; interleukin-1 type I receptor
# T1 sequence (looked up): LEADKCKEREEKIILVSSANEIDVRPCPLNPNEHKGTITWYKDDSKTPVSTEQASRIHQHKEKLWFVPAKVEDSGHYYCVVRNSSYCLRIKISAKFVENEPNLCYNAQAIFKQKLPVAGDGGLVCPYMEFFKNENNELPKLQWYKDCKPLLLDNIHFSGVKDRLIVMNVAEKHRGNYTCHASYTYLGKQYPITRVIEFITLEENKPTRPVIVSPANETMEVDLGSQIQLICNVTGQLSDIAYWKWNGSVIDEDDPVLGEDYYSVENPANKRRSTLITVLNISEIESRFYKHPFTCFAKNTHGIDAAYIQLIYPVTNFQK
# B1: rhIL-1α (recombinant human interleukin-1 alpha) (ligand, UniProt P01583 113-271, looked up)
# chain: SAPFSFLSNVKYNFMRIIKYEFILNDALNQSIIRANDQYLTAAALHNLDEAVKFDMGAYKSSKDDAKITVILRISKTQLYVTAQDEDQPVLLKEMPEIPKTITGSETNLLFFWETHGTKNYFTSVAHPNLFIATKQDYWVCLAGGPPSITDFQILENQA
# notes: also called rhlL-1α
# Target: T1, human IL-1 type 1 receptor (IL-1R1)
# Experiment: surface plasmon resonance
binder,measurement,value
B1,Kd,547 nM
same,koff,0.00145 s⁻¹
same,kon,2650 M⁻¹ s⁻¹
